In patent US20140348819A1, “Methods of Treating Cancer” (Dana-Farber Cancer Institute, Inc., priority 2011, published 2014):

Tested on: six V600E BRAF melanoma cell lines
Experiment: Screening of recombinant RTK ligands for ability to confer resistance to BRAFi (PLX4720) or MEKi (PD184352) (Table 4)
Assay type: cell-based, human
Parameters: ability of recombinant RTK ligand to confer resistance / ability of recombinant RTK ligand to confer resistance (screening value): scale not given here
Experimental: HGF is the only one that can substantially confer drug resistance to the cell lines.
The complexity of the tumor microenvironment is much greater than an in vitro co-culture system. Therefore, the inventors explored whether the activation of other RTKs could result in a similar resistance as that observed with the activation of MET. To this end, six V600E BRAF melanoma cell lines were tested for their resistance to either BRAFi (PLX4720) or MEKi (PD184352) after the addition of 22 RTK ligands that have the potential of activating almost all known RTKs. […] The activation of a selected subset of these RTKs was confirmed by western blotting and by high throughput tyrosine kinase phosphorylation profiling.

B1: VEGF-C (protein, UniProt P49767 112-227, looked up)
Vascular endothelial growth …: AHYNTEILKSIDNEWRKTQCMPREVCIDVGKEFGVATNTFFKPPCVSVYRCGGCCNSEGLQCMNTSTSYLSKTLFEITVPLSQGPKPVTISFANHTSCRCMSKLDVYRQVHSIIRR
A2058, PD184352 - 1 uM, ligand 1.6 ng/ml
  ability of recombinant RTK ligand to confer resistance: 1.01
A2058, PD184352 - 1 uM, ligand 6.25 ng/ml
  ability of recombinant RTK ligand to confer resistance: 1.02
A2058, PD184352 - 1 uM, ligand 25 ng/ml
  ability of recombinant RTK ligand to confer resistance: 1.01
A2058, PD184352 - 1 uM, ligand 100 ng/ml
  ability of recombinant RTK ligand to confer resistance: 0.99
A2058, PD184352 - 1 uM, ligand 400 ng/ml
  ability of recombinant RTK ligand to confer resistance: 0.94
A2058, PLX4720 - 2 uM, ligand 1.6 ng/ml
  ability of recombinant RTK ligand to confer resistance: 1.03
A2058, PLX4720 - 2 uM, ligand 6.25 ng/ml
  ability of recombinant RTK ligand to confer resistance: 1.04
A2058, PLX4720 - 2 uM, ligand 25 ng/ml
  ability of recombinant RTK ligand to confer resistance: 1.05
A2058, PLX4720 - 2 uM, ligand 100 ng/ml
  ability of recombinant RTK ligand to confer resistance: 1.04
A2058, PLX4720 - 2 uM, ligand 400 ng/ml
  ability of recombinant RTK ligand to confer resistance: 1.02
C32, PD184352 - 1 uM, ligand 1.6 ng/ml
  ability of recombinant RTK ligand to confer resistance: 1.06
C32, PD184352 - 1 uM, ligand 6.25 ng/ml
  ability of recombinant RTK ligand to confer resistance: 1.03
C32, PD184352 - 1 uM, ligand 25 ng/ml
  ability of recombinant RTK ligand to confer resistance: 1.16
C32, PD184352 - 1 uM, ligand 100 ng/ml
  ability of recombinant RTK ligand to confer resistance: 1.00
C32, PD184352 - 1 uM, ligand 400 ng/ml
  ability of recombinant RTK ligand to confer resistance: 1.07
C32, PLX4720 - 2 uM, ligand 1.6 ng/ml
  ability of recombinant RTK ligand to confer resistance: 0.94
C32, PLX4720 - 2 uM, ligand 6.25 ng/ml
  ability of recombinant RTK ligand to confer resistance: 1.09
C32, PLX4720 - 2 uM, ligand 25 ng/ml
  ability of recombinant RTK ligand to confer resistance: 1.06
C32, PLX4720 - 2 uM, ligand 100 ng/ml
  ability of recombinant RTK ligand to confer resistance: 1.08
C32, PLX4720 - 2 uM, ligand 400 ng/ml
  ability of recombinant RTK ligand to confer resistance: 1.08
Colo 829, PD184352 - 1 uM, ligand 1.6 ng/ml
  ability of recombinant RTK ligand to confer resistance: 0.97
Colo 829, PD184352 - 1 uM, ligand 6.25 ng/ml
  ability of recombinant RTK ligand to confer resistance: 1.02
Colo 829, PD184352 - 1 uM, ligand 25 ng/ml
  ability of recombinant RTK ligand to confer resistance: 0.94
Colo 829, PD184352 - 1 uM, ligand 100 ng/ml
  ability of recombinant RTK ligand to confer resistance: 0.95
Colo 829, PD184352 - 1 uM, ligand 400 ng/ml
  ability of recombinant RTK ligand to confer resistance: 0.90
Colo 829, PLX4720 - 2 uM, ligand 1.6 ng/ml
  ability of recombinant RTK ligand to confer resistance: 0.99
Colo 829, PLX4720 - 2 uM, ligand 6.25 ng/ml
  ability of recombinant RTK ligand to confer resistance: 1.00
Colo 829, PLX4720 - 2 uM, ligand 25 ng/ml
  ability of recombinant RTK ligand to confer resistance: 0.92
Colo 829, PLX4720 - 2 uM, ligand 100 ng/ml
  ability of recombinant RTK ligand to confer resistance: 0.95
Colo 829, PLX4720 - 2 uM, ligand 400 ng/ml
  ability of recombinant RTK ligand to confer resistance: 0.90
G-361, PD184352 - 1 uM, ligand 1.6 ng/ml
  ability of recombinant RTK ligand to confer resistance: 0.97
G-361, PD184352 - 1 uM, ligand 6.25 ng/ml
  ability of recombinant RTK ligand to confer resistance: 0.97
G-361, PD184352 - 1 uM, ligand 25 ng/ml
  ability of recombinant RTK ligand to confer resistance: 0.91
G-361, PD184352 - 1 uM, ligand 100 ng/ml
  ability of recombinant RTK ligand to confer resistance: 0.90
G-361, PD184352 - 1 uM, ligand 400 ng/ml
  ability of recombinant RTK ligand to confer resistance: 0.89
G-361, PLX4720 - 2 uM, ligand 1.6 ng/ml
  ability of recombinant RTK ligand to confer resistance: 1.01
G-361, PLX4720 - 2 uM, ligand 6.25 ng/ml
  ability of recombinant RTK ligand to confer resistance: 0.97
G-361, PLX4720 - 2 uM, ligand 25 ng/ml
  ability of recombinant RTK ligand to confer resistance: 0.92
G-361, PLX4720 - 2 uM, ligand 100 ng/ml
  ability of recombinant RTK ligand to confer resistance: 0.88
G-361, PLX4720 - 2 uM, ligand 400 ng/ml
  ability of recombinant RTK ligand to confer resistance: 0.85
SK-MEL-5, PD184352 - 1 uM, ligand 1.6 ng/ml
  ability of recombinant RTK ligand to confer resistance: 0.97
SK-MEL-5, PD184352 - 1 uM, ligand 6.25 ng/ml
  ability of recombinant RTK ligand to confer resistance: 0.36
SK-MEL-5, PD184352 - 1 uM, ligand 25 ng/ml
  ability of recombinant RTK ligand to confer resistance: 0.96
SK-MEL-5, PD184352 - 1 uM, ligand 100 ng/ml
  ability of recombinant RTK ligand to confer resistance: 0.98
SK-MEL-5, PD184352 - 1 uM, ligand 400 ng/ml
  ability of recombinant RTK ligand to confer resistance: 0.33
SK-MEL-5, PLX4720 - 2 uM, ligand 1.6 ng/ml
  ability of recombinant RTK ligand to confer resistance: 0.95
SK-MEL-5, PLX4720 - 2 uM, ligand 6.25 ng/ml
  ability of recombinant RTK ligand to confer resistance: 0.83
SK-MEL-5, PLX4720 - 2 uM, ligand 25 ng/ml
  ability of recombinant RTK ligand to confer resistance: 0.87
SK-MEL-5, PLX4720 - 2 uM, ligand 100 ng/ml
  ability of recombinant RTK ligand to confer resistance: 0.92
SK-MEL-5, PLX4720 - 2 uM, ligand 400 ng/ml
  ability of recombinant RTK ligand to confer resistance: 0.85
SK-MEL-28, PD184352 - 1 uM, ligand 1.6 ng/ml
  ability of recombinant RTK ligand to confer resistance: 1.09
SK-MEL-28, PD184352 - 1 uM, ligand 6.25 ng/ml
  ability of recombinant RTK ligand to confer resistance: 0.95
SK-MEL-28, PD184352 - 1 uM, ligand 25 ng/ml
  ability of recombinant RTK ligand to confer resistance: 0.90
SK-MEL-28, PD184352 - 1 uM, ligand 100 ng/ml
  ability of recombinant RTK ligand to confer resistance: 1.08
SK-MEL-28, PD184352 - 1 uM, ligand 400 ng/ml
  ability of recombinant RTK ligand to confer resistance: 0.85
SK-MEL-28, PLX4720 - 2 uM, ligand 1.6 ng/ml
  ability of recombinant RTK ligand to confer resistance: 1.05
SK-MEL-28, PLX4720 - 2 uM, ligand 6.25 ng/ml
  ability of recombinant RTK ligand to confer resistance: 0.94
SK-MEL-28, PLX4720 - 2 uM, ligand 25 ng/ml
  ability of recombinant RTK ligand to confer resistance: 0.98
SK-MEL-28, PLX4720 - 2 uM, ligand 100 ng/ml
  ability of recombinant RTK ligand to confer resistance: 1.01
SK-MEL-28, PLX4720 - 2 uM, ligand 400 ng/ml
  ability of recombinant RTK ligand to confer resistance: 0.89
